Experimental data taken from PMC9372576, “Interaction of the gas vesicle proteins GvpA, GvpC, GvpN, and GvpO of Halobacterium salinarum” (Frontiers in Microbiology, 2022).
Values belong to the binder of their own block, whether it stands above or below them.

B4: GvpN fused to NGFP or CGFP (natural protein, Halobacterium salinarum, UniProt Q9HI16 1-347, looked up)
chain: MTNESRKRKVRGSQIRSSRGDKKQGRSQSRDDKEIERLERQNDARGQESSTHVDEGFVPEEQSFIETESVNRVESRMERWLDVGRPVHLIGPTGCGKTSLAMHVARERDRPVVWINGDAELTTSDLVGEYAEKERISEHDQFIHNVVKSKDIIRDRWVDNPLTLAVQEGATLVYNEFSRTKPVANNVLLSVFEEGVLELPGKRGKSRYVDVHPEFRTILTSNSVEYAGVHEPQDALLDRLIGIYMDFYDLDTEIEIVRAHVDKSADTNVEDIVRVLRELRERLDITVGTRAAIMANEGATTVDTVDQAVLTDICTDVLASKVAQRSDVRGLREEIESAIDDMEVALS
notes: GvpN of the p-vac region of Halobacterium salinarum; gvpN amplified from the p-vac region; GFP fragment at the N- or C-terminus, 14 or 16 aa linker; source: Hfx. volcanii WR340 transformant, split-GFP fusion in living cells
B6: GvpA fragment A1-43 (domain or fragment, Halobacterium salinarum, UniProt P08958 1-43, looked up)
chain: MAQPDSSGLAEVLDRVLDKGVVVDVWARVSLVGIEILTVEARV
notes: GvpA of Halobacterium salinarum, alpha1-beta1-beta2; vector described in earlier work; source: Hfx. volcanii WR340 transformant, split-GFP fusion in living cells
B8: GvpC C-terminal fragment Cterm (domain or fragment, Halobacterium salinarum, UniProt P24574 329-382, looked up)
chain: ETEEEAPEDMVQCRVCGEYYQAITEPHLQTHDMTIQEYRDEYGEDVPLRPDDKT
notes: GvpC of Halobacterium salinarum, aa 329-382, the globular C-terminal domain with a zinc-finger motif; GFP fragment at the N- or C-terminus; source: Hfx. volcanii WR340 transformant, split-GFP fusion in living cells
B12: GvpA fragment A20-47 (domain or fragment, Halobacterium salinarum, UniProt P08958 20-47, looked up)
chain: GVVVDVWARVSLVGIEILTVEARVVAAS
notes: GvpA of Halobacterium salinarum, the two beta-sheets beta1-beta2; vector described in earlier work; source: Hfx. volcanii WR340 transformant, split-GFP fusion in living cells
B13: GvpC fused to NGFP or CGFP (natural protein, Halobacterium salinarum, UniProt P24574 1-382, looked up)
chain: MSVTDKRDEMSTARDKFAESQQEFESYADEFAADITAKQDDVSDLVDAITDFQAEMTNTTDAFHTYGDEFAAEVDHLRADIDAQRDVIREMQDAFEAYADIFATDIADKQDIGNLLAAIEALRTEMNSTHGAFEAYADDFAADVAALRDISDLVAAIDDFQEEFIAVQDAFDNYAGDFDAEIDQLHAAIADQHDSFDATADAFAEYRDEFYRIEVEALLEAINDFQQDIGDFRAEFETTEDAFVAFARDFYGHEITAEEGAAEAEAEPVEADADVEAEAEVSPDEAGGESAGTEEEETEPAEVETAAPEVEGSPADTADEAEDTEAEEETEEEAPEDMVQCRVCGEYYQAITEPHLQTHDMTIQEYRDEYGEDVPLRPDDKT
notes: GvpC of the p-vac region of Halobacterium salinarum; gvpC amplified from the p-vac region; GFP fragment at the N- or C-terminus, 14 or 16 aa linker; source: Hfx. volcanii WR340 transformant, split-GFP fusion in living cells

Experiments:
Experiment in all cases: split reporter (BiFC, NanoBiT); split-GFP (NGFP and CGFP of salt-stable mGFP2) in Hfx. volcanii transformants, 24 h 37 °C then 24 h 30 °C; relative fluorescence (rf) against the wild type; the highest of eight tag combinations is given
[1] = target: B4; conditions: partners not purified
[2] = target: B13; conditions: partners not purified
[3] = target: B8; conditions: partners not purified
[4] = target: the molecule itself
GvpA fragment A44-76 = target: T1, GvpA fragment A44-76 (Halobacterium salinarum, UniProt P08958 44-76); conditions: partners not purified
T1 construct: GvpA of Halobacterium salinarum, mainly helix alpha3; vector described in earlier work; source: Hfx. volcanii WR340 transformant, split-GFP fusion in living cells
T1 chain (looked up): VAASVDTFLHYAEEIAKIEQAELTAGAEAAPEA

GvpA fragment A20-47 = target: B12; conditions: partners not purified
[5] = target: T2, GvpA fused to NGFP or CGFP (Halobacterium salinarum, UniProt P08958 1-76); conditions: partners not purified
T2 construct: the entire GvpA of the p-vac region of Halobacterium salinarum; gvpA reading frame; NGFP (mGFP2 up to aa 157) or CGFP (from aa 158) at the N- or C-terminus through a 14 aa (pJAS) or 16 aa (pWLfdx) linker; with GvpF and its variants CGFP stood at the C-terminus of GvpA (AC); also called NA; AN; source: Hfx. volcanii WR340 transformant, split-GFP fusion in living cells
T2 sequence (looked up): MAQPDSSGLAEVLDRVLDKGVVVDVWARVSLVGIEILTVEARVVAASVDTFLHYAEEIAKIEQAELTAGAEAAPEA

GvpA fragment A1-43 = target: B6; conditions: partners not purified

B2: GvpG fused to NGFP or CGFP (natural protein, Halobacterium salinarum, UniProt P24371 1-83, looked up)
chain: MFIIDDLFVSPFFSLLDILQTMALDEMYDTKSIRDDIKENQLLYEVGERSDEEYQQRKQALESQLEMAEQVQEQMRDRMEVKK
notes: accessory gas vesicle protein GvpG of Halobacterium salinarum; construct of earlier work; source: Hfx. volcanii WR340 transformant, split-GFP fusion in living cells
relative fluorescence (rf) [1]: < 5 LAU/mm^2

Binder: B4
relative fluorescence (rf) [4]: > 10 LAU/mm^2

Binder: B6
relative fluorescence (rf) (GvpA fragment A44-76): ≤ 0.48 LAU/mm^2
relative fluorescence (rf) (GvpA fragment A20-47): ≤ 0.48 LAU/mm^2

Binder: B8
relative fluorescence (rf) [4]: 20.7 LAU/mm^2
relative fluorescence (rf) [5]: < 2.5 LAU/mm^2

B9: GvpA fragment A1-34 (domain or fragment, Halobacterium salinarum, UniProt P08958 1-34, looked up)
chain: MAQPDSSGLAEVLDRVLDKGVVVDVWARVSLVGI
notes: GvpA of Halobacterium salinarum, alpha1 plus beta-sheet 1; vector described in earlier work; source: Hfx. volcanii WR340 transformant, split-GFP fusion in living cells
relative fluorescence (rf) (GvpA fragment A44-76): ≤ 0.48 LAU/mm^2
relative fluorescence (rf) (GvpA fragment A1-43): ≤ 0.48 LAU/mm^2
relative fluorescence (rf) (GvpA fragment A20-47): ≤ 0.48 LAU/mm^2

Binder: B12
relative fluorescence (rf) (GvpA fragment A44-76): ≤ 0.48 LAU/mm^2

Binder: B13
relative fluorescence (rf) [4]: 14.5 LAU/mm^2

B14: GvpF fused to NGFP or CGFP (natural protein, Halobacterium salinarum, UniProt Q9HI21 1-213, looked up)
chain: MTENLYTYGIIEQEDLELDVEGVAGAEQVYTVDYKTLSAVVSDIDTTDPERTDEDVEAHNNVLQEVLKHEEERTVVPMSFGMAFKSARTLKGVLRGARRALRSTLNDIEGTVELGVKILGPGDDTVPREEIQENVTDQLADLSINETENDLFTDRLIINKSYLVDFEKRDAFDSAIDDVEAEYDELTIQYTGPWPPYNFVDIHIGAEQQQGGR
notes: GvpF (wild type) of the p-vac region of Halobacterium salinarum; R213 is the very last aa; parent of the GvpF variants; also called Fwt; WT; source: Hfx. volcanii WR340 transformant, split-GFP fusion in living cells
relative fluorescence (rf) [1]: < 5 LAU/mm^2
relative fluorescence (rf) [2]: > 7.5 LAU/mm^2
relative fluorescence (rf) [5]: 18 LAU/mm^2
relative fluorescence (rf) [3]: > 18 LAU/mm^2

Now from value to binder:

relative fluorescence (rf) [1]: < 5 LAU/mm^2
relative fluorescence (rf) [2]: > 7.5 LAU/mm^2
relative fluorescence (rf) [3]: > 18 LAU/mm^2
B1: GvpI fused to NGFP or CGFP (natural protein, Halobacterium salinarum, UniProt Q9HI24 1-144, looked up)
chain: MSDKQQQKHKQKARQARVKAQINRDKARRNLLRQREKLARRRTRNRKQSEPRRDDSDGDDTDGETVKNPAAHSTMPPQKSNAENAVRNSHSTVPKTPKYSDVTARERLYGQRLHQKTAGGNSEASAPSDESASGSPTEDEVNDE
notes: accessory gas vesicle protein GvpI of Halobacterium salinarum; construct of earlier work; source: Hfx. volcanii WR340 transformant, split-GFP fusion in living cells

relative fluorescence (rf) [1]: 16.9 LAU/mm^2
relative fluorescence (rf) [2]: 28.6 LAU/mm^2
relative fluorescence (rf) [3]: > 18 LAU/mm^2
B3: GvpL fused to NGFP or CGFP (natural protein, Halobacterium salinarum, UniProt Q9HI27 1-281, looked up)
chain: MTDHRPSPEEEQTTANEERTVSNGRYLYCVVDTTSSESATLSTTGVDDNPVYVVEADGVGAVVHDCETVYETEDLEQVKRWLVTHQQVVDAASDAFGTPLPMRFDTVLEGGDASIERWLEDHYEGFRDELASFAGVWEYRINLLWDSAPFEETIADRDDRLRELRQRQQQSGAGKKFLLEKQSDQRLQELKRERRTELADQLKEAITPVVNDLTEQDTNTPLQDEHSSIEKEQIVRFAVLADEDDETALGDRLDTIVEHEGVEIRFTGPWPPYTFAPDIGK
notes: accessory gas vesicle protein GvpL of Halobacterium salinarum; construct of earlier work; source: Hfx. volcanii WR340 transformant, split-GFP fusion in living cells

relative fluorescence (rf) [1]: < 5 LAU/mm^2
B5: GvpK fused to NGFP or CGFP (natural protein)
chain: not shown
notes: accessory gas vesicle protein GvpK of Halobacterium salinarum; construct of earlier work; source: Hfx. volcanii WR340 transformant, split-GFP fusion in living cells

relative fluorescence (rf) [1]: < 5 LAU/mm^2
relative fluorescence (rf) [2]: > 7.5 LAU/mm^2
relative fluorescence (rf) [3]: 42.6 LAU/mm^2
B7: GvpH fused to NGFP or CGFP (natural protein, Halobacterium salinarum, UniProt P24372 1-182, looked up)
chain: MVPDENDDASDDQSSQLSGLLDQLHTLVEVLADIEEEGGHRHESGRIDRGNARIDYDYDVSIGLGRADGSSYDEEPSSNRSRSEQRSGQQRTTEDSIHVETRGGTSGDELVVVADLPGVTDDDVDVALDTDEQALTLRVDDDVVERVVLDRPDVAITDMTLRNQVLEIRLARTSDTDGGEST
notes: accessory gas vesicle protein GvpH of Halobacterium salinarum; construct of earlier work; source: Hfx. volcanii WR340 transformant, split-GFP fusion in living cells

relative fluorescence (rf) [1]: < 5 LAU/mm^2
B10: GvpJ fused to NGFP or CGFP (natural protein, Halobacterium salinarum, UniProt P24374 1-114, looked up)
chain: MSDPKPTRSQGDLAEMLEMLLDKGVVVNADIAVSVGDTELLGIELRAAIASFETAAEYGLEFPTGTDMERVESAANISPDQSDPASETQSETESTNPLSDDSTPTASTSAEETK
notes: accessory gas vesicle protein GvpJ of Halobacterium salinarum; construct of earlier work; source: Hfx. volcanii WR340 transformant, split-GFP fusion in living cells

relative fluorescence (rf) [1]: < 5 LAU/mm^2
B11: GvpM fused to NGFP or CGFP (natural protein, Halobacterium salinarum, UniProt P24377 1-84, looked up)
chain: MEPTKDETHAIVEFVDVLLRDGAVIQADVIVTVADIPLIGISLRAAIAGMTTMTEYGLFEEWDAAHRQQSEAFTTSPTADRRED
notes: accessory gas vesicle protein GvpM of Halobacterium salinarum; construct of earlier work; source: Hfx. volcanii WR340 transformant, split-GFP fusion in living cells
